Here are results for two molecules from paper doi:10.1101/2021.07.23.453429 (bioRxiv, 2021).

B1: p53 NTD 20-70 (domain or fragment)
chain: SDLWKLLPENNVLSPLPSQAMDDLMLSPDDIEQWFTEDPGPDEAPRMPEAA
B2: cyclophilin D (enzyme)
chain: not shown

For the assay “cyclophilin D”, the target named is B2. Kind of assay: SPR.
Another assay has as its target full-length p53 (UniProt P04637 1-393). Kind of assay: SPR. On the technique in general: Surface plasmon resonance follows binding to a sensor surface in real time, without labels.

cyclophilin D, sequence (P30405 43-207): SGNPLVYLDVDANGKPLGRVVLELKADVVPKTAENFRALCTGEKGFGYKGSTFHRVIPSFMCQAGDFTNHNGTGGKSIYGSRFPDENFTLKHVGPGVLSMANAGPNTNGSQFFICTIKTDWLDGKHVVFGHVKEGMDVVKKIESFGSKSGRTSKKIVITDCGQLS

Take B1: the dissociation constant (Kd) in the assay with cyclophilin D is 9.4 µM.
For B2, the equilibrium dissociation constant (Kd) with full-length p53 was about 1 µM.

In general, Kd refers to the concentration at which binding is half-saturated. A low value points to higher affinity.
